Where a chain is given by its changes, count along the chain named.
Legend:
Experiment in all cases: Calcium mobilization (FLIPR, Fluo-3) in transfected COS-7 cells
Assay type in all cases: cell-based
h D5 = h D5 (Homo sapiens, UniProt P21918); conditions: h D5 + chimera in COS-7; agonist DA, max 100 μM
Summary of the method: (§1)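 COS-7 cells were transiently co-transfected (DEAE-dextran) with GPCR and chimeric G protein cDNA, 1:1 for a single chimera or 8:1:1 GPCR:Gαq/z:Gαq/s for the mix, and assayed two days later. Agonist-evoked Fluo-3 fluorescence was read by FLIPR over 3 min at room temperature.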

h β2 adr = h β2 adr (Homo sapiens, UniProt P07550); conditions: h β2 adr + chimera in COS-7; agonist NE, max 100 μM
Summary of the method: as §1

r GALR3 = biological target: T1, r GALR3 (Rattus norvegicus, UniProt O88626); conditions: r GALR3 + chimera in COS-7; agonist GAL, max 10 μM
T1 sequence (O88626 1-370): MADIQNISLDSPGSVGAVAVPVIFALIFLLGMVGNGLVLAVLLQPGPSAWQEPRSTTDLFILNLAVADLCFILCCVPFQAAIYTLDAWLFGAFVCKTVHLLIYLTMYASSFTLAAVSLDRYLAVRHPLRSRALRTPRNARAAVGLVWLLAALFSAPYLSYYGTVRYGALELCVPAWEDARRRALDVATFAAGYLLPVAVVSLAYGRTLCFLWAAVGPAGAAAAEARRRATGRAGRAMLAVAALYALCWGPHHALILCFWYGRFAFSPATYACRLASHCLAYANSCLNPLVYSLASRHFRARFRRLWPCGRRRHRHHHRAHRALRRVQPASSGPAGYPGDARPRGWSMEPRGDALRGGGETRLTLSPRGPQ
Summary of the method: as §1

h α1A adr = biological target: T2, h α1A adr (Homo sapiens, UniProt P35348); conditions: h α1A adr + chimera in COS-7; agonist NE, max 100 μM
T2 construct: expressed in transfected cells; host or cells: COS-7
T2 sequence (P35348 1-466): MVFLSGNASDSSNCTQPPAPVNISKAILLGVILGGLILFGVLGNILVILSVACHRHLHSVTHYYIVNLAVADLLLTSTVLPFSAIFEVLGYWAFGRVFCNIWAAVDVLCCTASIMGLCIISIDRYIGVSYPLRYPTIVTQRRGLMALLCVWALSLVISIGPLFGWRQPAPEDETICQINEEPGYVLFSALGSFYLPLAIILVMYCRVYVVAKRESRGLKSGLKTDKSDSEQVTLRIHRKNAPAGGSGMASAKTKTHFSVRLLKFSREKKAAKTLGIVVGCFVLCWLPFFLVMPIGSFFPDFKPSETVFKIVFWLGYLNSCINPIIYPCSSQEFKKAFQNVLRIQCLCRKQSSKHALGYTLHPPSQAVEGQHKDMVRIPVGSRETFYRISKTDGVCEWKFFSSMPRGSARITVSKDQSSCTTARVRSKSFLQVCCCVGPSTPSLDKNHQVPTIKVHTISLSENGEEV
Summary of the method: as §1

m 5HT5B = m 5HT5B (Mus musculus, UniProt P31387); conditions: m 5HT5B + chimera in COS-7; agonist 5HT, max 100 μM
Chain of m 5HT5B (P31387 whole entry): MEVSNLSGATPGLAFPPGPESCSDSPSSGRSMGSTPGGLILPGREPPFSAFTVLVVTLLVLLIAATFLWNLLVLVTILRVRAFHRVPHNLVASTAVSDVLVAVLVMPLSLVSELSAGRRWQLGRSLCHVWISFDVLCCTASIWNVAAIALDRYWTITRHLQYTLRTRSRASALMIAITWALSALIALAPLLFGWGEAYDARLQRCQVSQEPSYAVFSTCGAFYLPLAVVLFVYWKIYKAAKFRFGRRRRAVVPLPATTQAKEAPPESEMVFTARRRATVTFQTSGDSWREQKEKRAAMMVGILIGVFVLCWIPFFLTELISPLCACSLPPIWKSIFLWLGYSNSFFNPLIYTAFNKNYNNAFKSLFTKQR
Summary of the method: as §1

h GALR2 = biological target: T3, h GALR2 (Homo sapiens, UniProt O43603); conditions: h GALR2 + chimera in COS-7; agonist GAL, max 10 μM
T3 construct: expressed in transfected cells; host or cells: COS-7
T3 sequence (O43603 1-387): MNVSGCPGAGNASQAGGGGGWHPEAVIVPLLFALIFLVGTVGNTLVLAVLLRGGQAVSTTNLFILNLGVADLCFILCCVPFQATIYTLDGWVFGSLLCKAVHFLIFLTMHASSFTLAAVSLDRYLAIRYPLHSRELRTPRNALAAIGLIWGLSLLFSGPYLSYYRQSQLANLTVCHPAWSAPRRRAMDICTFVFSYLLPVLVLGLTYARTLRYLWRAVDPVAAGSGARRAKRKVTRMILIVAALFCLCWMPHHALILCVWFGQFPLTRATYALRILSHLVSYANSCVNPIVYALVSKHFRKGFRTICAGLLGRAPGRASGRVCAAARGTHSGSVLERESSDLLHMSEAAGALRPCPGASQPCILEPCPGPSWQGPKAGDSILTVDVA
Summary of the method: as §1

Chain of h D5 (P21918 whole entry): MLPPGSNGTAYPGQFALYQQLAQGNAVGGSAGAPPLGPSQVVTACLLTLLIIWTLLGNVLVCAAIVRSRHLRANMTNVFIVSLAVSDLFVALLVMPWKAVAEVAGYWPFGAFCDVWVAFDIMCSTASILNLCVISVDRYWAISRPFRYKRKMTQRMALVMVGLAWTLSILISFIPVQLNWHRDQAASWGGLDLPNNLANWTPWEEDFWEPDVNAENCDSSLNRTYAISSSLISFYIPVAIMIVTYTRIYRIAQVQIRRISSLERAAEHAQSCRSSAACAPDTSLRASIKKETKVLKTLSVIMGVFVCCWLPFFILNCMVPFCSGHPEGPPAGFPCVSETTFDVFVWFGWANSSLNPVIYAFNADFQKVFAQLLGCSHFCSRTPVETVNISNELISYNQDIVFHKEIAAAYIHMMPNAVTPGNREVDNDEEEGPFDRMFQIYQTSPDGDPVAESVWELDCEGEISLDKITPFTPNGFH

B1: cGαq/z5: chimeric Gα subunit: C-terminal final 5 amino acids of C. elegans Gαq replaced with those of hGαz (SEQ ID NO: 1) (protein)
chain: MACCLSEEAREQKRINQEIEKQLQRDKRNARRELKLLLLGTGESGKSTFIKQMRIIHGQGYSEEDKRAHIRLVYQNVFMAIQSMIRAMDTLDIKFGNESEELQEKAAVVREVDFESVTSFEEPYVSYIKELWEDSGIQECYDRRREYQLTDSAKYYLSDLRRLAVPDYLPTEQDILRVRVPTTGIIEYPFDLEQIIFRMVDVGGQRSERRKWIHCFENVTSIMFLVALSEYDQVLVECDNENRMEESKALFRTIITYPWFTNSSVILFLNKKDLLEEKILYSHLADYFPEYDGPPRDPIAAREFILKMFVDLNPDADKIIYSHFTCATDTENIRFVFAAVKDTILQHNLKYIGLC
modifications: C. elegans
MAXIMAL SIGNAL (FLUORESCENCE UNITS) (h D5): 657 fluorescence units | MAXIMAL SIGNAL (FLUORESCENCE UNITS) (h β2 adr): 1842 fluorescence units | MAXIMAL SIGNAL (FLUORESCENCE UNITS) (r GALR3): 2298 fluorescence units | MAXIMAL SIGNAL (FLUORESCENCE UNITS) (h α1A adr): 9816 fluorescence units | MAXIMAL SIGNAL (FLUORESCENCE UNITS) (m 5HT5B): 265 fluorescence units | MAXIMAL SIGNAL (FLUORESCENCE UNITS) (h GALR2): 5470 fluorescence units

B2: cGαq/z9: C. elegans Gαq with Gαz portion of the C-terminal tail extended to 9 amino acids (SEQ ID NO: 2) (protein)
chain: B1 chain with H347N
modifications: C. elegans
MAXIMAL SIGNAL (FLUORESCENCE UNITS) (h D5): 797 fluorescence units | MAXIMAL SIGNAL (FLUORESCENCE UNITS) (h β2 adr): 1697 fluorescence units | MAXIMAL SIGNAL (FLUORESCENCE UNITS) (r GALR3): 2971 fluorescence units | MAXIMAL SIGNAL (FLUORESCENCE UNITS) (h α1A adr): 6597 fluorescence units | MAXIMAL SIGNAL (FLUORESCENCE UNITS) (m 5HT5B): 443 fluorescence units | MAXIMAL SIGNAL (FLUORESCENCE UNITS) (h GALR2): 4899 fluorescence units

From US7067277B1, “Chimeric G proteins and uses thereof” (H. Lundbeck A/S, priority 1999, dated 2006)
